Numbering of substitutions follows the chain as printed.
Columns and labels:
[1] = target: T1, cynomolgus monkey C-MET on stably transfected CHO-K1 cells (cynomolgus monkey, UniProt A0M8R7 25-1381 (Papio anubis entry)); assay: flow cytometry, C-MET CHO-K1 cells
T1 construct: also called cycMET; cyno C-MET+ CHO-K1 cells
Protocol: (§1) Purified IgGs were tested in FACs for binding to human and cyno C-MET expressed on CHO-K1 stable cell lines and CHO-K1 wild-type cells. The IgG samples were titrated in three-fold serial dilutions starting at 500 nM to 0.08 nM. Binding of IgGs was detected with a mouse anti-human IgG conjugated to FITC. Results were analyzed by examining the Mean Fluorescence Intensity (MFI) of 10000 cells per sample in the BL-1 channel detector of a flow cytometer (Attune™ NxT Acoustic Focusing Cytometer, Invitrogen/ThermoFisher Scientific).

[2] = target: T2, human C-MET on stably transfected CHO-K1 cells (human, UniProt P08581 25-1390); assay: flow cytometry, C-MET CHO-K1 cells
T2 construct: also called hucMET; human C-MET+ CHO-K1 cells
T2 sequence (P08581 25-1390 limits assumed): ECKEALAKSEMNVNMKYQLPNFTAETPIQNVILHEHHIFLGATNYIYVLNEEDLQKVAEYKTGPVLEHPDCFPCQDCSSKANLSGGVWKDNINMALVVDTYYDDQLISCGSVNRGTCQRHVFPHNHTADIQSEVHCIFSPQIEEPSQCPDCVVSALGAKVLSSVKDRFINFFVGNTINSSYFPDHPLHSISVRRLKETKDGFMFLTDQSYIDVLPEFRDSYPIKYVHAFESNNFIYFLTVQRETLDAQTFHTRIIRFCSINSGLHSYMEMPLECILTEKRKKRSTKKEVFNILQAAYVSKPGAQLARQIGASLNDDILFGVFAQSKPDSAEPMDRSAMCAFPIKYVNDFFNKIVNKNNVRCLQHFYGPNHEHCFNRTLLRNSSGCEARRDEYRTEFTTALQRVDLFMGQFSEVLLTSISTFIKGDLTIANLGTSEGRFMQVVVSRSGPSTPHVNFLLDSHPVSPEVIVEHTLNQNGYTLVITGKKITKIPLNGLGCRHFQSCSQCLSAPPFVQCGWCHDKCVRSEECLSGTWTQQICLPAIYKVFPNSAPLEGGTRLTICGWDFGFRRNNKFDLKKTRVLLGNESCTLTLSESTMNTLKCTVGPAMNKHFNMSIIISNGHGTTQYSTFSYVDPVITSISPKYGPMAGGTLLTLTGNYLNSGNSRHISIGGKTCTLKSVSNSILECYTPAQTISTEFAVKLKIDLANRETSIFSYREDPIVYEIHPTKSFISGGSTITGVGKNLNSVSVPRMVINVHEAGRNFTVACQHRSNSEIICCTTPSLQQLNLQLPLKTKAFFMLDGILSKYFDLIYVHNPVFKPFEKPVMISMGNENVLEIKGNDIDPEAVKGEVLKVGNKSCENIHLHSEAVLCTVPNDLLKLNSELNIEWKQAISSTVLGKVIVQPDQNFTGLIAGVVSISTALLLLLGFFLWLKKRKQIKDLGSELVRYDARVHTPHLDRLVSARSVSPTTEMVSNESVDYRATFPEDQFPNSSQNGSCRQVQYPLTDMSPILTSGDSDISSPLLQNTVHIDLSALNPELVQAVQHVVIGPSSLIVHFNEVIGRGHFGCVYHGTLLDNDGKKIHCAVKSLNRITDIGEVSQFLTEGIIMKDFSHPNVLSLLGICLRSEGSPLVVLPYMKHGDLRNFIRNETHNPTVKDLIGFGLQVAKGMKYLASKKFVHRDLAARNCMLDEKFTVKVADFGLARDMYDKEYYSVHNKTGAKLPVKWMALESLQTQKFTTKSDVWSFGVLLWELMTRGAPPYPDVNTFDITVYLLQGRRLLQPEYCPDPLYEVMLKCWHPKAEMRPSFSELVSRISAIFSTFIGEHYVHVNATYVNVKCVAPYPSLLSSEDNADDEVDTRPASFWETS
Protocol: as §1

[3] = target: T3, human C-MET His tagged, monomeric (human, UniProt P08581 25-932); assay: SPR Biacore, IgG captured, monomeric C-MET-His analyte
T3 construct: also called monomeric human C-MET; biotinylated human C-MET-His
T3 sequence (P08581 25-932): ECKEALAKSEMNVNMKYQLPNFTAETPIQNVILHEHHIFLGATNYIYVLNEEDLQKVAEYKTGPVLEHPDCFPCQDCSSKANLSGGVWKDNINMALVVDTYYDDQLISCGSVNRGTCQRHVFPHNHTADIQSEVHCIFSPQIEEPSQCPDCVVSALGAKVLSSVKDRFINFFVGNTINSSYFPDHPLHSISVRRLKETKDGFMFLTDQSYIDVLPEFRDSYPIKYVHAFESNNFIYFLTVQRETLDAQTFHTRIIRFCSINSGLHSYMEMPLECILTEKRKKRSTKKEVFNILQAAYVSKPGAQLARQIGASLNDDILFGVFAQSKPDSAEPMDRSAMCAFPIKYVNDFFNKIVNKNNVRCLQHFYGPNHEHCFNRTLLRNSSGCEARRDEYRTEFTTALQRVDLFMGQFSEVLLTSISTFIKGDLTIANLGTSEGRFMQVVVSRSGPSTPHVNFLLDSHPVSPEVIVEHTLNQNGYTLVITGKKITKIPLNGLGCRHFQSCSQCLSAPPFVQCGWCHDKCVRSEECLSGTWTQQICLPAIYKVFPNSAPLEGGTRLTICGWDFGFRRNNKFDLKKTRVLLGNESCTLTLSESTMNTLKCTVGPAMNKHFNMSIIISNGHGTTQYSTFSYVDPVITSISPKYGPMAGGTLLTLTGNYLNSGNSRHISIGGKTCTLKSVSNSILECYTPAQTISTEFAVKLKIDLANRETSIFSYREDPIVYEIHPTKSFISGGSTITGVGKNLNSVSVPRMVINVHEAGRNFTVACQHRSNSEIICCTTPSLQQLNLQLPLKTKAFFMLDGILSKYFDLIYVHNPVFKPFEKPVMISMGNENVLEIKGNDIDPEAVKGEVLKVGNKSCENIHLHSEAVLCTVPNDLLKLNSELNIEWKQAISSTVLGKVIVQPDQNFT
Protocol: (§2) Affinity (KD) of purified IgGs was determined via SPR with antigen in-solution on a Biacore® 3000 (GE). A mouse anti-human antibody (CH1 specific) was immobilized on a CM5 Sensor Chip to a level of 2000 RU in acetate buffer at pH 4.5 using amine coupling following the Wizard instructions for two channels. One channel was used for background signal correction. The standard running buffer HBS-EP pH 7.4 was used. Regeneration was performed with a single injection of 10 μl of 10 mM Glycine at pH 1.5 at 20 μl/minute. IgG samples were injected for 2 minutes at 50 nM at 30 μl/min followed by and off-rate of 60 seconds. The monomeric antigen (human C-MET His tagged or cynomolgus monkey C-MET His tag) was injected in two fold serial dilutions from 100 nM down to 6 nM, for 2 minutes at 30 μl/min followed by an off-rate of 300 seconds. The obtained sensorgrams were analysed using the Biacore® 3000 evaluation (BIAevaluation) software. The KD was calculated by simultaneous fitting of the association and dissociation phases to a 1:1 Langmuir binding model.

[4] = target: T4, cynomolgus monkey C-MET His tag, monomeric (cynomolgus monkey, UniProt A0M8R7 25-932 (Papio anubis entry)); assay: as above
T4 construct: also called monomeric cyno C-MET; cyCMET
T4 sequence (A0M8R7 25-932 S170N/I621T): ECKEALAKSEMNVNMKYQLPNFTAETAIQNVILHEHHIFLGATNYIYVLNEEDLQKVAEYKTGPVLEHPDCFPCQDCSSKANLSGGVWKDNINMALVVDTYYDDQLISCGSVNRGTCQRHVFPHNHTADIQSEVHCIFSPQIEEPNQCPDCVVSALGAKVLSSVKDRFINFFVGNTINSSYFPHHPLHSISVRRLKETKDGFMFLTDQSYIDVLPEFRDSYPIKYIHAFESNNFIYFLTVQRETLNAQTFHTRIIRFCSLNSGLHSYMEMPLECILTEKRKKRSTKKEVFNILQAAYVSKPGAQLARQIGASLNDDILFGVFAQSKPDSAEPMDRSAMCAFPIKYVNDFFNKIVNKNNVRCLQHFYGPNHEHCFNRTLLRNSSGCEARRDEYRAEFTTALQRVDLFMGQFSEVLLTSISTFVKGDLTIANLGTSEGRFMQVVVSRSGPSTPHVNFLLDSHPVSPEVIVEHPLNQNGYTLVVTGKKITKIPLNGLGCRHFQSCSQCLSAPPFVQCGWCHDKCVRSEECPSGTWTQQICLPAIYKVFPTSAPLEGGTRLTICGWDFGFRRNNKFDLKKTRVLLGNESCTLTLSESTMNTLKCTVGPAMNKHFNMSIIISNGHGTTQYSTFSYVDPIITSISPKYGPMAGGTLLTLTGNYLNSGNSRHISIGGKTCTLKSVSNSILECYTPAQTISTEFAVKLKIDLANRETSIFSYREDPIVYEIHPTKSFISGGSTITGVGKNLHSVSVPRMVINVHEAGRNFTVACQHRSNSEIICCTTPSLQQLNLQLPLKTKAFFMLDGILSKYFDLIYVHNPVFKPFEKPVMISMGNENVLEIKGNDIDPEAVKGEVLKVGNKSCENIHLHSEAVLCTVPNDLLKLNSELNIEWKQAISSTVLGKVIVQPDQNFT
Protocol: as §2

[5] = target: T3, human C-MET His tagged, monomeric; assay: Alphascreen epitope competition in solution: varied IgG4(S228P) against 224G11 IgG4(S228P) binding to biotinylated human C-MET, CPS
Protocol: FIG. 4. Epitope competition analysis of IgG4(S228P) proteins in Alphascreen. Anti-C-MET IgG4(S228P) clones were applied in an epitope competition assay using Alphascreen technology. In this assay, library-derived and designer IgGs were analysed for their retention of the parental 224G11 epitope by competing for 224G11 IgG4(S228P) binding to human C-MET protein, in solution.
The AlphaScreen assay (Perkin Elmer) was performed in a 25 μl final volume in 384-well white microtiter plates (Greiner). The reaction buffer contained 1×PBS pH 7.3 (Oxoid, Cat. nr. BR0014G) and 0.05% (v/v) Tween® 20 (Sigma, Cat. nr. P9416). Purified IgG samples were titrated in three fold serial dilutions starting at 50 nM final concentration and incubated with biotinylated human C-MET-His (Acrobiosystems) at 1 nM final concentration for 20 minutes at room temperature. The parental IgG and the anti-human IgG4(S228P) Acceptor beads at were added and the mix was incubated for 1 hour at room temperature. Followed by addition of the Streptavidin Donor beads and incubation for 30 minutes at room temperature. The emission of light was measured in the EnVision multilabel plate reader (Perkin Elmer) and analysed using the EnVision manager software. Values were reported as Counts Per Second (CPS) and corrected for crosstalk.

[6] = target: T1, cynomolgus monkey C-MET on stably …; assay: flow cytometry, C-MET CHO-K1 cells; remark: listed apart in the source
Protocol: as §1
(§3) Antibodies to C-MET were analysed for concentration-dependent binding at the cell surface via flow cytometry. CHO-K1 cells were stably transfected with either human or cyno C-MET full-length cDNAs. Anti-C-MET IgGs and an isotype control IgG4(S228P) were then all tested in IgG4(S228P) format, over a concentration range of 500-0.08 nM for binding to human (FIG. 5A) and cyno (FIG. 5B) CHO-K1 cells.

[7] = target: T2, human C-MET on stably transfected …; assay: flow cytometry, C-MET CHO-K1 cells; remark: listed apart in the source
Protocol: as §1, §3

[8] = target: T3, human C-MET His tagged, monomeric; assay: SPR Biacore
Protocol: as §2

[9] = target: T4, cynomolgus monkey C-MET His tag, …; assay: SPR Biacore
Protocol: as §2

T1 sequence (A0M8R7 25-1381 S170N/I621T limits assumed): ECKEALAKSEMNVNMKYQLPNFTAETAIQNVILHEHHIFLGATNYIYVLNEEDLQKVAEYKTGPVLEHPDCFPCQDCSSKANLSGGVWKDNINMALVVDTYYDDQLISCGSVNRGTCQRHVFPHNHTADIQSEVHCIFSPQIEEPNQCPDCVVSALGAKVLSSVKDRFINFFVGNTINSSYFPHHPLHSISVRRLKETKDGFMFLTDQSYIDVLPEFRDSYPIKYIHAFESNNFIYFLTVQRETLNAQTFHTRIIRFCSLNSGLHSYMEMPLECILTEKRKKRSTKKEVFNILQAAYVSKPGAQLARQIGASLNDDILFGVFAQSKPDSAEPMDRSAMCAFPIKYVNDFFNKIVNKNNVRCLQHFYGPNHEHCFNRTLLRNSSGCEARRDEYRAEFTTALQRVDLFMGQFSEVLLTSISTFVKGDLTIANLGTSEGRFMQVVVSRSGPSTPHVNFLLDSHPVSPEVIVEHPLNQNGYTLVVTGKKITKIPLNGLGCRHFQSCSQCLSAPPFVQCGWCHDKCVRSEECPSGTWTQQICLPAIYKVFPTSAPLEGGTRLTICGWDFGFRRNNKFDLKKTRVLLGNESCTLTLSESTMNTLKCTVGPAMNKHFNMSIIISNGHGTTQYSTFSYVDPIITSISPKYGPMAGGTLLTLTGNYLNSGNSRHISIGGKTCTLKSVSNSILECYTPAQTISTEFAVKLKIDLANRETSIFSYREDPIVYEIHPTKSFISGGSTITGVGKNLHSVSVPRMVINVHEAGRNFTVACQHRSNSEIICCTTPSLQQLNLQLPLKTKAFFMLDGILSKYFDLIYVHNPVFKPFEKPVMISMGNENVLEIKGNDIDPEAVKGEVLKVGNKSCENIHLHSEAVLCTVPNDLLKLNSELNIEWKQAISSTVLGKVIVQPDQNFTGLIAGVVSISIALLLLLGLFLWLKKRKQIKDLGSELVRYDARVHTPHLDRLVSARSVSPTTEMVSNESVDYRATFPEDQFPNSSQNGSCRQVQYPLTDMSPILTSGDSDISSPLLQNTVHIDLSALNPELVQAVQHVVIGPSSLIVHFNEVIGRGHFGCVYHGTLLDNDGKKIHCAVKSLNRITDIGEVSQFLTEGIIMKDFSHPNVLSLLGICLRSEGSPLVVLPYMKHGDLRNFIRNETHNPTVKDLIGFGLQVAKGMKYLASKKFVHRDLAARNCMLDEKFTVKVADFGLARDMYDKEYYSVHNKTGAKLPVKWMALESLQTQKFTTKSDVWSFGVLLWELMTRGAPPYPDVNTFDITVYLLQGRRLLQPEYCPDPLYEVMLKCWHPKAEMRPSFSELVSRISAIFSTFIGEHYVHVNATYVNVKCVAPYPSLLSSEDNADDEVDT

B1: 04E10 (antibody, IgG4, V domains shown)
VH: QVQLVQSGAEVKKPGASVKVSCKASGYIFTSYTMHWVRQAPGQGLEWMGWIKPNNGSASYAQKFQGRVTMTRDTSTSTVYMELSSLRSEDTAVYYCARSEITTEEDYWGQGTLVTVSS
VL: EIVLTQSPGTLSLSPGERATLSCRASQSVDSYANSYLHWYQQKPGQAPRLLIYRGSTRESGIPDRFSGSGSGTDFTLTISRLEPEDFAVYYCQQSKSEPLTFGGGTKVEIK
[1]
  EC50: 2.94 nM
[2]
  EC50: 9.66 nM
[3]
  Kd: 1.6 nM
  koff: 5e-05 s⁻¹
  kon: 31000 M⁻¹ s⁻¹
[4]
  Kd: 2.2 nM
  koff: 0.00011 s⁻¹
  kon: 49000 M⁻¹ s⁻¹
[5]
  IC50 (read off the curve): ~2 nM
[6]
  maximum MFI, fold over Isotype IgG4 background: > 10 fold
[7]
  maximum MFI, fold over Isotype IgG4 background: > 10 fold

B2: MH9 (antibody, IgG4, V domains shown)
VH: B1 VH with I28T, W50I, K52N, N54S, N55G, A58T, S99Q, E105F
VL: B1 VL with D30S, N34Q, S60T, S95Y, K96G, E98S
[1]
  EC50: 0.65 nM
[2]
  EC50: 1.23 nM
[8]
  fold loss of KD against MH7: 10 to 20 fold
[9]
  fold loss of KD against MH7: 10 to 20 fold
[3]
  Kd: 6.6 nM
  koff: 0.00039 s⁻¹
  kon: 59000 M⁻¹ s⁻¹
[4]
  Kd: 4.3 nM
  koff: 0.00048 s⁻¹
  kon: 110000 M⁻¹ s⁻¹
[6]
  maximum MFI, fold over Isotype IgG4 background: > 10 fold
[7]
  maximum MFI, fold over Isotype IgG4 background: > 10 fold

— patent US20260042850A1 (LOCKBODY THERAPEUTICS, published 2026)
